Reference: patent publication US20230016396A1

Columns and labels:
[1] = biological target: T1, M15-L-P1-AR target polypeptide with P1 = A
T1 chain: LAAR

[2] = biological target: T2, M15-L-P1-AR target polypeptide with P1 = I
T2 chain: LIAR

[3] = biological target: T3, M15-L-P1-AR target polypeptide with P1 = L
T3 chain: LLAR

[4] = biological target: T4, M15-L-P1-AR target polypeptide with P1 = M
T4 chain: LMAR

[5] = biological target: T5, M15-L-P1-AR target polypeptide with P1 = Q
T5 chain: LQAR

[6] = biological target: T6, M15-L-P1-AR target polypeptide with P1 = V
T6 chain: LVAR

[7] = biological target: T7, M15-L-P1-AR target polypeptide with P1 = D
T7 chain: LDAR

[8] = biological target: T8, M15-L-P1-AR target polypeptide with P1 = E
T8 chain: LEAR

[9] = biological target: T9, M15-K(biotin)-AAR peptide (SEQ ID NO: 12)
T9 chain: KAAR

B1: M15-L_Z001 (first selected modified cleavase) (protein)
chain: MHKTRLVAALAAALATLAPAAWADEGMWVPQQLPEIAGALKKAGLKLDPKQLSDLTGDPMGAVVSLGGCTGSFVSPQGLVATNHHCAYGAIQLNSTPEKNLIKDGFNAPTQADELSAGPNARIYVLEGITDVTAQAKAAMAAAGNDPVARANALEAFEKKITSDCEAEPGYRCRVYSFMGGITYRLFKNLEIKDVRLVYAPPSSVGKFGGDIDMGMWPTHTGDFSFYRAYVGKDGKPAPYSKDNVPYRPKHWLKIADTPLGEGDFVMVAGYPGRTDRYALVAEFENTQNWLYPAISKAYKDQIALVEAAAKDNPEIAVKYAAALAGWNRTSKNFDGQLEGFKRNDVLAIKRREEAAVLEWLRARGKAGTPALEAHAALVKLVADTARTQERDLVLGSFNRTGIIGVAVNLYRLAIERQKPDAEREPGYQQRDLPVIEGSLKQMERRYVPAMDRQLRAYWLDRYVALPAAQHVAAVDAWLGGSDKAAAEAALARLDQSRLGSLEERLKWFNADRAAFEASTDPAIQYAVAVMPTLLAMEQQAKTRYGVALEARPRYLQAVVDYKKSKGQAVYPDANSTLRITYGHVKGYTGLNGKVYTPFTTLEEVAAKETGVEPFDNPKALLEAVAAKRYAGLADARLGTVPVNFLADLDITGGNSGSPVLDANGRLVGLAFAGTLESVASNWVFDPVLTRMISVDQRYMRWIMQEVMPAPQLLEELGVPPRQ
Q: For B1, which “cleavage of the M15-L-labeled P1 residue from the polypeptide” value (“cleavage of the M15-L-labeled P1 residue” for short) [1] is on record?
A: provided 100% cleavage for polypeptides with the following M15-L-labeled P1 residues: A, I, L, M, Q, V

Q: What about the “cleavage of the M15-L-labeled P1 residue” value [2] of the same protein?
A: provided 100% cleavage for polypeptides with the following M15-L-labeled P1 residues: A, I, L, M, Q, V

Q: What about the “cleavage of the M15-L-labeled P1 residue” value [3] of the same protein?
A: provided 100% cleavage for polypeptides with the following M15-L-labeled P1 residues: A, I, L, M, Q, V

Q: What about the “cleavage of the M15-L-labeled P1 residue” value [4] of the same protein?
A: provided 100% cleavage for polypeptides with the following M15-L-labeled P1 residues: A, I, L, M, Q, V

Q: And the “cleavage of the M15-L-labeled P1 residue” value [5]?
A: provided 100% cleavage for polypeptides with the following M15-L-labeled P1 residues: A, I, L, M, Q, V

Q: What about the “cleavage of the M15-L-labeled P1 residue” value [6] of the same protein?
A: provided 100% cleavage for polypeptides with the following M15-L-labeled P1 residues: A, I, L, M, Q, V

B2: M15-L_Z002 (protein)
chain: MHKTRLVAALAAALATLAPAAWADEGMWVPQQLPEIAGALKKAGLKLDPKQLSDLTGDPMGAVVSLGGCTGSFVSPQGLVATNHHCAYGAIQLNSTPEKNLIKDGFNAPTQADELSAGPNARIYVLEGITDVTAQAKAAMAAAGNDPVARANALEAFEKKITSDCEAEPGYRCRVYSFMGGITYRLFKNLEIKDVRLVYAPPSSVGKFGGDIDMGMWPTHTGDFSFYRAYVGKDGKPAPYSKDNVPYRPKHWLKIADTPLGEGDFVMVAGYPGRTDRYALVAEFENTQNWLYPAISKAYKDQIALVEAAAKDNPEIAVKYAAALAGWNRTSKNFDGQLEGFKRNDVLAIKRREEAAVLEWLRARGKAGTPALEAHAALVKLVADTARTQERDLVLGSFNRTGIIGVAVNLYRLAIERQKPDAEREPGYQQRDLPVIEGSLKQMERRYVPAMDRQLRAYWLDRYVALPAAQHVAAVDAWLGGSDKAAAEAALARLDQSRLGSLEERLKWFNADRAAFEASTDPAIQYAVAVMPTLLAMEQQAKTRYGVALEARPRYLQAVVDYKKSKGQAVYPDANSTLRITYGHVKGYTGLNGKVYTPFTTLEEVAAKETGVEPFDNPKALLEAVAAKRYAGLADARLGTVPVNFLADLDITGGNSGSPVLDANGRLVGLAFAGTLESVASNWVFDPVLTRMISVDQRYMRWIMQEVMPAPQLLEELGVPPRQ
Q: Which “cleavage profile (cleavage efficiency)” value [7] does the source give for B2 here?
A: M15-L_Z002, having specificity towards D and E in the P1 position

Q: What about the “cleavage profile (cleavage efficiency)” value [8] of the same protein?
A: M15-L_Z002, having specificity towards D and E in the P1 position

B3: engineered dipeptidyl peptidase clone (SEQ ID NO: 6) derived from dipeptidyl peptidase from Thermomonas hydrothermalis (protein)
chain: DEGMWVPQQLPEIAGALKKAGLKLDPKQLSDLTGDPMGAVVSLGGCTGSFVSPQGLVATNHHCAYGAIQLNSTPEKNLIKDGFNAPTQADELSAGPNARIYVLEGITDVTAQAKAAMAAAGNDPVARANALEAFEKKITSDCEAEPGYRCRVYSFMGGITYRLFKNLEIKDVRLVYAPPSSVGKFGGDIDMGMWPTHTGDFSFYRAYVGKDGKPAPYSKDNVPYRPKHWLKIADTPLGEGDFVMVAGYPGRTDRYALVAEFENTQNWLYPAISKAYKDQIALVEAAAKDNPEIAVKYAAALAGWNRTSKNFDGQLEGFKRNDVLAIKRREEAAVLEWLRARGKAGTPALEAHAALVKLVADTARTQERDLVLGSFNRTGIIGVAVNLYRLAIERQKPDAEREPGYQQRDLPVIEGSLKQMERRYVPAMDRQLRAYWLDRYVALPAAQHVAAVDAWLGGSDKAAAEAALARLDQSRLGSLEERLKWFNADRAAFEASTDPAIQYAVAVMPTLLAMEQQAKTRYGVALEARPRYLQAVVDYKKSKGQAVYPDANSTLRITYGHVKGYTGLNGKVYTPFTTLEEVAAKETGVEPFDNPKALLEAVAAKRYAGLADARLGTVPVNFLADLDITGGNSGSPVLDANGRLVGLAFAVTLESVASNWVFDPVLTRMISVDQRYMRWIMQEVMPAPQLLEELGVPPRQ
Q: For B3, which “percentage of conversion to cleavage product (HPLC, UV absorbance at 254 nm)” value [9] is on record?
A: about 10% of the model peptide was converted to the cleavage product, M15-K(biotin)-A
